The text below walks through data of the supplement of paper PMC10567573.

First the molecules themselves.
B1: VPS39 (parent)
chain: ITEEKVCMVCKKKIGNSAFARYPN
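Note: lentivirally expressed fusions sorted by FACS into six bins by GFP to DsRed ratio, PSI derived from sequencing read proportions per bin multiplied by bin number.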

Variants of B1 are the subject of this data set. As to the kind of experiment: protein stability index of a GFP-peptide fusion (GPS, HEK-293T) (PSI 1-6); higher = more stable. As to conditions: c terminus: a fixed tail appended.
As for ITEEFVCMVCKKKIGNSAFARYPN [K5F], the protein stability index worked out at 2.21.

Consider ITEEHVCMVCKKKIGNSAFARYPN [K5H], for which the protein stability index is 2.17.

For ITEEYVCMVCKKKIGNSAFARYPN [K5Y], the protein stability index came out at 1.55.

For the variant ITEEEVCMVCKKKIGNSAFARYPN [K5E], the protein stability index stood at 2.62.

Take ITEEAVCMVCKKKIGNSAFARYPN [K5A]: the protein stability index worked out at 2.63.

Consider ITEEQVCMVCKKKIGNSAFARYPN [K5Q], for which the protein stability index worked out at 2.42.

In the case of ITEERVCMVCKKKIGNSAFARYPN [K5R], the protein stability index amounted to 1.65.

As for ITEELVCMVCKKKIGNSAFARYPN [K5L], the protein stability index came out at 2.06.

Regarding ITEEGVCMVCKKKIGNSAFARYPN [K5G], the protein stability index was 2.33.

For ITEECVCMVCKKKIGNSAFARYPN [K5C], the protein stability index turned out to be 2.04.

Regarding ITEESVCMVCKKKIGNSAFARYPN [K5S], the protein stability index was 2.53.

Take ITEEPVCMVCKKKIGNSAFARYPN [K5P]: the protein stability index was found to be 2.87.

Regarding ITEENVCMVCKKKIGNSAFARYPN [K5N], the protein stability index worked out at 3.66.

As to ITEETVCMVCKKKIGNSAFARYPN [K5T], the protein stability index was found to be 2.09.

Consider ITEEWVCMVCKKKIGNSAFARYPN [K5W], for which the protein stability index is 2.28.

For ITEEVVCMVCKKKIGNSAFARYPN [K5V], the protein stability index worked out at 1.98.

Turning to ITEEMVCMVCKKKIGNSAFARYPN [K5M], the protein stability index is 2.23.

With ITEEIVCMVCKKKIGNSAFARYPN [K5I], the protein stability index was determined as 1.78.

With ITEEDVCMVCKKKIGNSAFARYPN [K5D], the protein stability index was determined as 2.65.

For ITEVKVCMVCKKKIGNSAFARYPN [E4V], the protein stability index worked out at 1.91.

ITEYKVCMVCKKKIGNSAFARYPN [E4Y]: the protein stability index was 2.15.

With ITEPKVCMVCKKKIGNSAFARYPN [E4P], the protein stability index came out at 2.39.

Take ITERKVCMVCKKKIGNSAFARYPN [E4R]: the protein stability index was determined as 2.15.

As to ITEAKVCMVCKKKIGNSAFARYPN [E4A], the protein stability index was found to be 1.47.

Turning to ITEGKVCMVCKKKIGNSAFARYPN [E4G], the protein stability index came to 1.5.

Consider ITEQKVCMVCKKKIGNSAFARYPN [E4Q], for which the protein stability index was determined as 2.38.

ITELKVCMVCKKKIGNSAFARYPN [E4L]: the protein stability index turned out to be 2.09.

Take ITENKVCMVCKKKIGNSAFARYPN [E4N]: the protein stability index was 2.12.

With ITESKVCMVCKKKIGNSAFARYPN [E4S], the protein stability index was 1.74.

Consider ITEKKVCMVCKKKIGNSAFARYPN [E4K], for which the protein stability index came out at 1.86.

Regarding ITEHKVCMVCKKKIGNSAFARYPN [E4H], the protein stability index turned out to be 1.82.

For the variant ITETKVCMVCKKKIGNSAFARYPN [E4T], the protein stability index was determined as 1.83.

With ITECKVCMVCKKKIGNSAFARYPN [E4C], the protein stability index is 1.57.

In the case of ITEMKVCMVCKKKIGNSAFARYPN [E4M], the protein stability index worked out at 2.57.

As for ITEIKVCMVCKKKIGNSAFARYPN [E4I], the protein stability index is 2.06.

Regarding ITEDKVCMVCKKKIGNSAFARYPN [E4D], the protein stability index was found to be 2.94.

With ITEFKVCMVCKKKIGNSAFARYPN [E4F], the protein stability index worked out at 1.77.

For the variant ITHEKVCMVCKKKIGNSAFARYPN [E3H], the protein stability index is 1.94.

As to ITIEKVCMVCKKKIGNSAFARYPN [E3I], the protein stability index came out at 3.

Regarding ITFEKVCMVCKKKIGNSAFARYPN [E3F], the protein stability index came to 1.51.

As to ITTEKVCMVCKKKIGNSAFARYPN [E3T], the protein stability index amounted to 1.97.

For the variant ITPEKVCMVCKKKIGNSAFARYPN [E3P], the protein stability index is 2.25.

Take ITNEKVCMVCKKKIGNSAFARYPN [E3N]: the protein stability index stood at 1.84.

Consider ITQEKVCMVCKKKIGNSAFARYPN [E3Q], for which the protein stability index amounted to 2.53.

ITYEKVCMVCKKKIGNSAFARYPN [E3Y]: the protein stability index worked out at 2.03.

As for ITLEKVCMVCKKKIGNSAFARYPN [E3L], the protein stability index came to 1.91.

Take ITAEKVCMVCKKKIGNSAFARYPN [E3A]: the protein stability index came out at 1.97.

In the case of ITREKVCMVCKKKIGNSAFARYPN [E3R], the protein stability index came to 3.83.

Turning to ITGEKVCMVCKKKIGNSAFARYPN [E3G], the protein stability index came out at 2.13.

Consider ITVEKVCMVCKKKIGNSAFARYPN [E3V], for which the protein stability index was determined as 1.82.

Turning to ITSEKVCMVCKKKIGNSAFARYPN [E3S], the protein stability index worked out at 1.97.

In the case of ITDEKVCMVCKKKIGNSAFARYPN [E3D], the protein stability index was determined as 2.55.

For ITWEKVCMVCKKKIGNSAFARYPN [E3W], the protein stability index stood at 1.96.

Take ITKEKVCMVCKKKIGNSAFARYPN [E3K]: the protein stability index came to 1.44.

Regarding ITCEKVCMVCKKKIGNSAFARYPN [E3C], the protein stability index amounted to 1.26.

Turning to ITMEKVCMVCKKKIGNSAFARYPN [E3M], the protein stability index was 1.39.

In the case of ITEEKWCMVCKKKIGNSAFARYPN [V6W], the protein stability index is 1.62.

Consider ITEEKECMVCKKKIGNSAFARYPN [V6E], for which the protein stability index amounted to 2.8.

Regarding ITEEKGCMVCKKKIGNSAFARYPN [V6G], the protein stability index was 1.38.

On to ITEEKQCMVCKKKIGNSAFARYPN [V6Q], for which the protein stability index is 2.48.

On to ITEEKSCMVCKKKIGNSAFARYPN [V6S], for which the protein stability index was found to be 3.06.

For ITEEKTCMVCKKKIGNSAFARYPN [V6T], the protein stability index was determined as 2.3.

ITEEKHCMVCKKKIGNSAFARYPN [V6H]: the protein stability index was 2.65.

For ITEEKCCMVCKKKIGNSAFARYPN [V6C], the protein stability index stood at 1.95.

For ITEEKICMVCKKKIGNSAFARYPN [V6I], the protein stability index came out at 3.18.

For ITEEKYCMVCKKKIGNSAFARYPN [V6Y], the protein stability index was found to be 2.52.

ITEEKFCMVCKKKIGNSAFARYPN [V6F]: the protein stability index stood at 2.39.

Regarding ITEEKLCMVCKKKIGNSAFARYPN [V6L], the protein stability index was found to be 2.21.

As for ITEEKKCMVCKKKIGNSAFARYPN [V6K], the protein stability index was 2.95.

As for ITEEKRCMVCKKKIGNSAFARYPN [V6R], the protein stability index is 2.44.

As for ITEEKACMVCKKKIGNSAFARYPN [V6A], the protein stability index worked out at 1.83.

Regarding ITEEKNCMVCKKKIGNSAFARYPN [V6N], the protein stability index was 3.42.

With ITEEKPCMVCKKKIGNSAFARYPN [V6P], the protein stability index was 2.88.

Take ITEEKDCMVCKKKIGNSAFARYPN [V6D]: the protein stability index was 3.48.

As to ITEEKMCMVCKKKIGNSAFARYPN [V6M], the protein stability index was 2.81.

Consider ITEEKVVMVCKKKIGNSAFARYPN [C7V], for which the protein stability index was determined as 3.31.

On to ITEEKVLMVCKKKIGNSAFARYPN [C7L], for which the protein stability index worked out at 2.77.

As for ITEEKVTMVCKKKIGNSAFARYPN [C7T], the protein stability index turned out to be 3.18.

With ITEEKVHMVCKKKIGNSAFARYPN [C7H], the protein stability index came to 3.47.

For the variant ITEEKVMMVCKKKIGNSAFARYPN [C7M], the protein stability index turned out to be 2.79.

In the case of ITEEKVGMVCKKKIGNSAFARYPN [C7G], the protein stability index worked out at 2.46.

In the case of ITEEKVYMVCKKKIGNSAFARYPN [C7Y], the protein stability index stood at 2.53.

Turning to ITEEKVPMVCKKKIGNSAFARYPN [C7P], the protein stability index was determined as 3.64.

For ITEEKVQMVCKKKIGNSAFARYPN [C7Q], the protein stability index worked out at 3.31.

ITEEKVDMVCKKKIGNSAFARYPN [C7D]: the protein stability index was found to be 4.19.

Take ITEEKVWMVCKKKIGNSAFARYPN [C7W]: the protein stability index turned out to be 2.02.

Turning to ITEEKVKMVCKKKIGNSAFARYPN [C7K], the protein stability index is 3.1.

For ITEEKVSMVCKKKIGNSAFARYPN [C7S], the protein stability index is 2.98.

In the case of ITEEKVEMVCKKKIGNSAFARYPN [C7E], the protein stability index stood at 4.24.

For the variant ITEEKVNMVCKKKIGNSAFARYPN [C7N], the protein stability index stood at 4.1.

On to ITEEKVFMVCKKKIGNSAFARYPN [C7F], for which the protein stability index was found to be 2.78.

For the variant ITEEKVRMVCKKKIGNSAFARYPN [C7R], the protein stability index turned out to be 2.54.

ITEEKVAMVCKKKIGNSAFARYPN [C7A]: the protein stability index is 2.81.

With ITEEKVIMVCKKKIGNSAFARYPN [C7I], the protein stability index came to 2.2.
